# In patent US20230266317A1 (published 2023):
# T1: UspA2 of M. catarrhalis Dutch isolate F10, on bacteria (Moraxella catarrhalis)
# T1 chain: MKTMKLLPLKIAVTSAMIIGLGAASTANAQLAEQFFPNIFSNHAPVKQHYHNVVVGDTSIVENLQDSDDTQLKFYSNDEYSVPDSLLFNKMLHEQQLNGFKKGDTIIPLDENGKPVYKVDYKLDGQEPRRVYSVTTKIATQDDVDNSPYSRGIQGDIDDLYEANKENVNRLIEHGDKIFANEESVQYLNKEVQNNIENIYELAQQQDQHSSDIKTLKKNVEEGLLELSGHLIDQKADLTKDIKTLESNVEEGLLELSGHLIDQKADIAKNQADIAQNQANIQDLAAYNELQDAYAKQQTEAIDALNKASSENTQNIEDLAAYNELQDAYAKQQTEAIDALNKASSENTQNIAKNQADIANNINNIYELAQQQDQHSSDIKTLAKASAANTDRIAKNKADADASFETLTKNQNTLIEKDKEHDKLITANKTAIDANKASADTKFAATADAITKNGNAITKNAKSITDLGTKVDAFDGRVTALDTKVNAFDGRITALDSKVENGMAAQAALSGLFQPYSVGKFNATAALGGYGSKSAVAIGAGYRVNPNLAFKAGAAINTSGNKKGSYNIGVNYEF
# T2: UspA2 of M. catarrhalis strain ATCC 25238 (SEQ ID NO: 1), on bacteria (Moraxella catarrhalis)
# T2 chain: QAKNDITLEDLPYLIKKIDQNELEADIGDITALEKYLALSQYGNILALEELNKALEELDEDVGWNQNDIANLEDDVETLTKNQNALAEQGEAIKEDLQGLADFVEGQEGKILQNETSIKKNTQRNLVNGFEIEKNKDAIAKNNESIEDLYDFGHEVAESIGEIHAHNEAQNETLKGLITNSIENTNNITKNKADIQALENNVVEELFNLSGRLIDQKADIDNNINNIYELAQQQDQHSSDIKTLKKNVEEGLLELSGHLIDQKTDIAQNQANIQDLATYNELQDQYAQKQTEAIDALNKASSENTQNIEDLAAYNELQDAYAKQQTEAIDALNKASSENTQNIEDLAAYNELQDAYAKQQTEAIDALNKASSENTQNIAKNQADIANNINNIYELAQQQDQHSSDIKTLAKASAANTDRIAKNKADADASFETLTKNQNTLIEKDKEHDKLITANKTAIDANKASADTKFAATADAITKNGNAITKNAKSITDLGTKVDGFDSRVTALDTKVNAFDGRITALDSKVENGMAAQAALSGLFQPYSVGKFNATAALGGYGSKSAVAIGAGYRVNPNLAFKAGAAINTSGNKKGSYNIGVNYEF
# B1: anti-UspA2 monoclonal antibody FHUSPA2/10 (antibody, V domains shown)
# VH: EVQLQQSGTVLARPGASVKMSCKASGYSFTSYWMHWVKQRPGQGLEWIGAIYPGNSDTSYNQKFKGKAKLTAVTSASTAYMELSNLTNEDSAVYSCTLLRFLDAYWGQGTLVTVSA
# VL: QIVLSQSPAILSASPGEKVTMTCRASSSVSYMHWYQQKPGSSPKPWIYATSNLASGVPARFSGSGSGTSYSLTISRVEAEDAATYYCQQWSSNPPTFGGGSKLEIK
# Tests used:
# Test in all cases: cell-based or functional assay
# [1] = biological target: UspA2H of M. catarrhalis AERIS isolate 415, on bacteria (Moraxella catarrhalis)
# [2] = biological target: UspA2H of M. catarrhalis AERIS isolate 268, on bacteria (Moraxella catarrhalis)
# [3] = biological target: UspA2H of M. catarrhalis AERIS isolate 240, on bacteria (Moraxella catarrhalis)
# [4] = biological target: UspA2H of M. catarrhalis AERIS isolate 193, on bacteria (Moraxella catarrhalis)
# [5] = biological target: T1, UspA2 of M. catarrhalis Dutch isolate …
# [6] = biological target: UspA2 of M. catarrhalis Denmark isolate BBH18 (wild type), on bacteria (Moraxella catarrhalis)
# [7] = biological target: T2, UspA2 of M. catarrhalis strain ATCC …
# [8] = biological target: UspA1 of M. catarrhalis strain ATCC 43617, on bacteria (Moraxella catarrhalis)
# [9] = biological target: UspA2H of M. catarrhalis AERIS isolate 296, on bacteria (Moraxella catarrhalis)
binder,measurement,setting,value
B1,bactericidal activity (mid-point titer),[1],256000 mid-point titer (reciprocal dilution inducing 50% of killing)
same,bactericidal activity (mid-point titer),[2],> 384000 mid-point titer (reciprocal dilution inducing 50% of killing)
same,bactericidal activity (mid-point titer),[3],> 25600 mid-point titer (reciprocal dilution inducing 50% of killing)
same,bactericidal activity (mid-point titer),[4],> 640000 mid-point titer (reciprocal dilution inducing 50% of killing)
same,bactericidal activity (mid-point titer),[5],528000 mid-point titer (reciprocal dilution inducing 50% of killing)
same,bactericidal activity (mid-point titer),[6],386000 mid-point titer (reciprocal dilution inducing 50% of killing)
same,bactericidal activity (mid-point titer),[7],1.88e+06 mid-point titer (reciprocal dilution inducing 50% of killing)
same,bactericidal activity (mid-point titer),[8],< 100 mid-point titer (reciprocal dilution inducing 50% of killing)
same,bactericidal activity (mid-point titer),[9],114000 mid-point titer (reciprocal dilution inducing 50% of killing)
